Source: the RNAGym collection of RNA variant scans (doi:10.7554/elife.80360)

B1: Hairpin Ribozyme (parent)
chain: GUCCUCUUUCACGUGCGCGUGAAAGAGAGAAGUGAACCAGAGAAACACACGUUGUGGUAUAUUACCUGGUA

Variants of: B1
Experiment: self-cleavage, relative activity (ratio to wild type); higher = more cleavage; co-transcriptional

Variant	self-cleavage
GUCCUCUUUCAGGUGCGCGUGAAAGAGAGAAGUGAACCAGAGAAACACACGUUGUGGAAUAUUACCUGGUA [C12G U58A]	0.734
GUCCUCUUUCACGUGCGCGUGAAAGAGAAAAGUGAACCAGAGAAACACACGUUGUGGUAUAUUACCUGGUG [G29A A71G]	0.112
GUCCUCUUUCACGUGCGCGUGAAAGAGAGAAGUGAACCAGAGAAACACACGUUGUGGGAUAUUACCUGGUU [U58G A71U]	0.455
GUCCUCUUUCACGUGCGCGUGAAAGAGAGAUGUGAACCAGAGAAACACACGUAGUGGUAUAUUACCUGGUA [A31U U53A]	0.026
GUCCUCUUUCACGUGCACGUGAAAGAGAGAAGUGAACCAGAGCAACACACGUUGUGGUAUAUUACCUGGUA [G17A A43C]	0.0401
GUCCUCUCUCACGUGCGCGUGAAAGAGAGAAGUGAACCAGAGAAACACACGUUGUGGUAUAGUACCUGGUA [U8C U62G]	0.144
GUCCUCUUUCACGUGCGCGUGACAGAGAGAAGUGAACCAGAGAAACACACGUUGUGGUUUAUUACCUGGUA [A23C A59U]	0.174
GUCCUCUUUCACGUGCGCGUGAAAGAGAGAAGUCAACCAGAGAAACACACAUUGUGGUAUAUUACCUGGUA [G34C G51A]	1.61
GUCCUCUUUCACGUGCGCGUGAAAGAGAUAAGUGAACCAGAGAAACACACGUUGUGGUAUAAUACCUGGUA [G29U U62A]	0.103
GUCCUCUUUCACGUGCGCGUGAAAGAGACAAGUGAACCAGAGAAACAGACGUUGUGGUAUAUUACCUGGUA [G29C C48G]	0.0534
GUCUUCUUUCACGUGCGCGUGAAAGACAGAAGUGAACCAGAGAAACACACGUUGUGGUAUAUUACCUGGUA [C4U G27C]	0.229
UUCCUCUUUCACGUGCGCGUGAAAGAGAGAAGUGAACCAGAGAAGCACACGUUGUGGUAUAUUACCUGGUA [G1U A45G]	0.0992
GACCUCUUUCUCGUGCGCGUGAAAGAGAGAAGUGAACCAGAGAAACACACGUUGUGGUAUAUUACCUGGUA [U2A A11U]	0.269
GUCCUCUUUCACGUUCGCGUGAAAGAGAGAAGUGAACCAGAGAAACACACGUUGUGGUAUAUUACGUGGUA [G15U C66G]	0.183
GUCCUCUUUCACAUGCGCGUGAAAGAGAGAAGUGAACCAGAGAAACACUCGUUGUGGUAUAUUACCUGGUA [G13A A49U]	0.18
GUGCUCUUUCACGUGCGCGUGAACGAGAGAAGUGAACCAGAGAAACACACGUUGUGGUAUAUUACCUGGUA [C3G A24C]	0.238
GUCCUCUUUCCCGUGGGCGUGAAAGAGAGAAGUGAACCAGAGAAACACACGUUGUGGUAUAUUACCUGGUA [A11C C16G]	0.578
GUCCUCUUUCACGUGCGCGUGAAAGAGAUAAGUGAACCAGAGAAACACCCGUUGUGGUAUAUUACCUGGUA [G29U A49C]	0.14
GUCCUCUUUCACGUGCGCGUGAAAGAGAGAAGUGAACCCGAGAAACACACGUUGUGGCAUAUUACCUGGUA [A39C U58C]	0.568

Variant	self-cleavage
GUCCUCUUUCACGUGCGUGUGAAAGAGAGAAGUGAACCAGAGAAACAAACGUUGUGGUAUAUUACCUGGUA [C18U C48A]	0.134
GUCCUCUUUCACGUGCGCGUGAAAGAGAGAAGUGAACCAGAGAGACACACGUUGGGGUAUAUUACCUGGUA [A44G U55G]	0.185
GUCCUCUUUCACGGGCGCGUGAAAGAGAGAAGUGAACCAGAGAAACACACGUUGGGGUAUAUUACCUGGUA [U14G U55G]	0.273
GUCCUCUUUCACGUGCGCAUGAAAGAGAGAAGUGAACCAGAGAAACACACGUUGUGGAAUAUUACCUGGUA [G19A U58A]	0.557
GUCCUCUUUCACGUGCGCGUGGAAGAGAGAAGUGAACCAGAGAAACACAGGUUGUGGUAUAUUACCUGGUA [A22G C50G]	0.42
GUCCUUUUUCACGUGCGCGUGAAAGCGAGAAGUGAACCAGAGAAACACACGUUGUGGUAUAUUACCUGGUA [C6U A26C]	0.29
GUCCUCUUUCACUUGCGCGAGAAAGAGAGAAGUGAACCAGAGAAACACACGUUGUGGUAUAUUACCUGGUA [G13U U20A]	0.73
GUCCUCUUUCACGUGCGCGUGAAUGAGAGAAGUGAACCUGAGAAACACACGUUGUGGUAUAUUACCUGGUA [A24U A39U]	0.38
GUCCUCUUUCACGUGCGCGUGAAAGAGAGAAGUGAACCAGAGAAGCACACGUUGUGGUAUAUUGCCUGGUA [A45G A64G]	0.1
GUCCUCUUUCACGUGCGCGUGAAAGAGAGAAUUGAACCUGAGAAACACACGUUGUGGUAUAUUACCUGGUA [G32U A39U]	0.125
GUCCUCUUUCACGUGCGCGUAAAAGAGGGAAGUGAACCAGAGAAACACACGUUGUGGUAUAUUACCUGGUA [G21A A28G]	0.979
GUCCUCAUUCACGUGCGCGUGAAAGAGAGAAGUGAACCAGAGAAACACAUGUUGUGGUAUAUUACCUGGUA [U7A C50U]	0.364
GUCCUCUUCCACGUGCGCGUGAAAGAGAGAAGUGAACCAGAGAAACACACUUUGUGGUAUAUUACCUGGUA [U9C G51U]	0.463
GCCCUCUUUCACGUGCGCGUGACAGAGAGAAGUGAACCAGAGAAACACACGUUGUGGUAUAUUACCUGGUA [U2C A23C]	0.144
GUCCUCAUUCACGUGCGCGUGAAAGAGAGAAGUGAACCAGAGAAACACACGUUGUGGUAUAUUACCUGGUG [U7A A71G]	0.895
GUCCUCUUUCACGUGCGCGCGAAAGAGAGAAGUGGACCAGAGAAACACACGUUGUGGUAUAUUACCUGGUA [U20C A35G]	0.71
UUCCUCUUUCACGUGCGCGUGAAAAAGAGAAGUGAACCAGAGAAACACACGUUGUGGUAUAUUACCUGGUA [G1U G25A]	0.133
GUCCUCUUUCACGUGCGCGUGAAAGAGAGAAGUGAACCACAGCAACACACGUUGUGGUAUAUUACCUGGUA [G40C A43C]	0.168
GUCCUCUUUCACGUGCGCGUGAAAGAGAGAAGUGGACCAGAGAAACACACGUUGUGGUAUAUAACCUGGUA [A35G U63A]	0.232
